The numbers were not newly measured in patent US10543185B2, “Method for treating idiopathic pulmonary fibrosis” (The University of Chicago, priority 2015, dated 2020), which cites them from elsewhere.

The subject of this data set is patients with idiopathic pulmonary fibrosis (IPF). The settings on record: trial stopped early; cited from earlier work.

B1: interferon gamma-1b: study drug of the INSPIRE randomized clinical trial, compared to placebo (protein, UniProt P01579 24-161, looked up)
Interferon gamma: QDPYVKEAENLKKYFNAGHSDVADNGTLFLGILKNWKEESDRKIMQSQIVSFYFKLFKNFKDDQSIQKSVETIKEDMNVKFFNSNKKKRDDFEKLTNYSVTDLNVQRKAIHELIQVMAELSPAAKTGKRKRSQMLFRG
modifications: interferon gamma-1b
notes: study drug of the INSPIRE randomized clinical trial, compared to placebo
Take B1: the “Benefit compared to placebo at interim analysis” value was “no benefit”.
